Experimental data taken from article PMC12049944, “Lecithin:cholesterol acyltransferase binds a discontinuous binding site on adjacent apolipoprotein A-I belts in HDL” (Journal of Lipid Research, 2025).

Target: the molecule itself
Experiment: SEC; LCAT alone on triple Superdex 200 Increase, run beside rHDL alone and the cross-linked mixture

B1: Lecithin:cholesterol acyltransferase (recombinant, expressed in CHO cells) (enzyme, human, UniProt P04180 25-440, looked up)
chain: FWLLNVLFPPHTTPKAELSNHTRPVILVPGCLGNQLEAKLDKPDVVNWMCYRKTEDFFTIWLDLNMFLPLGVDCWIDNTRVVYNRSSGLVSNAPGVQIRVPGFGKTYSVEYLDSSKLAGYLHTLVQNLVNNGYVRDETVRAAPYDWRLEPGQQEEYYRKLAGLVEEMHAAYGKPVFLIGHSLGCLHLLYFLLRQPQAWKDRFIDGFISLGAPWGGSIKPMLVLASGDNQGIPIMSSIKLKEEQRITTTSPWMFPSRMAWPEDHVFISTPSFNYTGRDFQRFFADLHFEEGWYMWLQSRDLLAGLPAPGVEVYCLYGVGLPTPRTYIYDHGFPYTDPVGVLYEDGDDTVATRSTELCGLWQGRQPQPVHLLPLHGIQHLNMVFSNLTLEHINAILLGAYRQGPPASPTASPEPPPPE
notes: Lecithin:cholesterol acyltransferase, human; cross-links to 'LCAT residue 1' (the N-terminus) are reported; Used for all non-cryoEM experiments (cross-linking, SEC, negative-stain EM, activity assays); also called LCAT; human LCAT; source: CHO cells, recombinant, gifted by Alan Remaley
**Q.** Does B1 bind?
**A.** binds
